Kd data for 23 molecules are collected here from patent publication US20240150489A1 (ICHNOS SCIENCES, published 2024).

Assay [1] has as its target T1, recombinant cynomolgus monkey CD38-ECD-C-his (cynomolgus monkey, UniProt Q5VAN0 45-301).
T1 construct: Extracellular region fused to 6-His; also called cyno CD38-C-His; recombinant cynomolgus monkey CD38 protein
In words: SPR, Fab captured as ligand, cyno CD38 analyte. A general note: SPR reads the build-up and loss of mass on a sensor chip optically.
Description: (§1) Affinities of the Fab to human and cynomolgus CD38 using the Fab as ligand were measured on a Biacore T200 instrument (Biacore, GE Healthcare) at 25° C. and analyzed with the BiacoreT200 Evaluation Software (v3.1). […] The affinities to human and cynomolgus monkey CD38 were assessed by immobilizing Fab fragments and using human or cynomolgus monkey CD38 protein as analyte. Around 50-200 RU of Fab was captured on flow-path 2 of a Series S CM5 Sensor Chip coupled with anti-human Fab antibodies. Human or cynomolgus monkey CD38 was injected in multi cycle kinetic at different concentrations ranging from 0.2 to 100 nM, in HBS-EP+ buffer (Biacore, GE Healthcare, catalog NO: BR100669) at a flow rate of 30 μl/min for 5 min on flow-path 1 and 2 (flow-path 1 being used as reference). Dissociation was monitored for 10 min. […] Experimental data were processed using the 1:1 Langmuir kinetic fitting model. Measurements included zero-concentration samples for referencing. Chi², U- and residual values were used to evaluate the quality of a fit between the experimental data and individual binding models.

In assay [2] the target is T2, recombinant human CD38-ECD-C-his (human, UniProt P28907 43-300).
T2 construct: Extracellular region fused to 6-His, made in house; also called human CD38-C-His; recombinant human CD38 protein
As to the kind of experiment: SPR, Fab captured as ligand, CD38 analyte.
Description: as §1

Assay [3] addresses T3, recombinant biotinylated human CD38 Avitag, His Tag (Acrobiosystems, CD8-H82E7) (human, UniProt P28907 43-300, biotinylated (Avitag)).
T3 construct: Bought protein; also called biotinylated human CD38-avi-his protein; biotinylated recombinant human CD38 protein
As to the kind of experiment: SPR, biotinylated CD38 captured, Fab as analyte.

Assay [4] deals with T1, recombinant cynomolgus monkey …. As to the kind of experiment: SPR, His-captured cyno CD38, Fab as analyte.
For assay [5], the target named is T4, cynomolgus CD47-ECD-Avi-His (cynomolgus monkey).
T4 construct: also called recombinant cynomolgus monkey CD47-avi-his protein
T4 chain: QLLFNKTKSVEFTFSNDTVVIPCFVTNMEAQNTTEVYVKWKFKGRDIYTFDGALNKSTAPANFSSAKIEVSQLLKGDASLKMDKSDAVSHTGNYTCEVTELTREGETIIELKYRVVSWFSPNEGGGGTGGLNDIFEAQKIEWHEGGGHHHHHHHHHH
As to the kind of experiment: SPR, CD47 amine-coupled, Fab analyte, 1:1 fit.
Description: (§2) Surface plasmon resonance (SPR) was used to measure the binding affinities of the Fab fragments for human and cynomolgus monkey CD47. Affinities were measured on a Biacore T200 instrument (Biacore, GE Healthcare) at 25° C. and analyzed with the Biacore T200 Evaluation Software (v3.1). […] Recombinant human CD47 protein and recombinant cynomolgus monkey CD47 protein were covalently immobilized to around 50 RU on flow-path 2 and flow-path 4 respectively of the Sensor Chip surface using a commercially available amine coupling kit (Biacore, GE Healthcare, catalog NO: BR100050). […] Dissociation was monitored for 5 min. After each cycle, the Series S CM5 Sensor Chip surface coated with recombinant CD47 proteins was regenerated with 30 μl of 10 mM Glycine pH 1.5 (Biacore, GE Healthcare, catalog NO: BR100354). Experimental data were processed using the 1:1 Langmuir kinetic fitting model. Measurements included zero-concentration samples for referencing. Chi², U- and residual values were used to evaluate the quality of a fit between the experimental data and individual binding models.

In assay [6] the target is T5, human CD47-ECD-Avi-His (human).
T5 construct: also called recombinant human CD47-avi-his protein; recombinant human CD47 protein
In words: SPR, CD47 amine-coupled, Fab analyte, 1:1 fit.
Description: as §2

B1: anti-CD38-B6-MP01-D9 FAB (Fab, V domains shown)
VH: QVQLVQSGAEVKKPGSSVKVSCKASGGFFSHYIINWVRQAPGQGLEWMGRVIPVIDDAYYAQKFQGRVTITADESTSTAYMELSSLRSEDTAVYYCARSRGYYGSFYFDIWGQGTLVTVSS
VL: not shown
notes: human IgG1 Fab; also called anti-CD38-B6-D9
As a reminder, the Kd is the constant that tells how readily two partners part at equilibrium. Regarding B1, the Kd came to 5.2 nM in assay [1], 2.3 nM in assay [2], 0.55 nM in assay [3] and 3.33 nM in assay [4].

B2: anti-CD38-B6-MP02-G11 FAB (Fab, V domains shown)
VH: QVQLVQSGAEVKKPGSSVKVSCKASGGHTLPPIINWVRQAPGQGLEWMGRVIPVIDDAYYAQKFQGRVTITADESTSTAYMELSSLRSEDTAVYYCARSRGYYGSFYFDIWGQGTLVTVSS
VL: not shown
notes: human IgG1 Fab
For B2, the dissociation constant (Kd) in assay [1] amounted to 534 nM; in assay [2] it was 128 nM; in assay [3] it was 425 nM; in assay [4], 262 nM.

B3: anti-CD38-B6-MP02-C2 FAB (Fab, V domains shown)
VH: QVQLVQSGAEVKKPGSSVKVSCKASGGHGQQRIINWVRQAPGQGLEWMGRVIPVIDDAYYAQKFQGRVTITADESTSTAYMELSSLRSEDTAVYYCARSRGYYGSFYFDIWGQGTLVTVSS
VL: not shown
notes: human IgG1 Fab
For the molecule B3, the Kd in assay [1] is 342 nM; in assay [2] it was 404 nM; in assay [3], 101 nM.

B4: anti-CD38-B6-MP01-A4 FAB (Fab, V domains shown)
VH: QVQLVQSGAEVKKPGSSVKVSCKASGGPFSDYVINWVRQAPGQGLEWMGRVIPVIDDAYYAQKFQGRVTITADESTSTAYMELSSLRSEDTAVYYCARSRGYYGSFYFDIWGQGTLVTVSS
VL: not shown
notes: human IgG1 Fab
On to B4, for which the Kd in assay [1] came to 828 nM; in assay [2] it was 227 nM; in assay [3], 84.9 nM; in assay [4], 229 nM.

B5: anti-CD38-B6-MP01-H3b FAB (Fab, V domains shown)
VH: QVQLVQSGAEVKKPGSSVKVSCKASGGPFQSNIVNWIRQAPGQGLEWMGRVIPVIDDAYYAQKFQGRVTITADESTSTAYMELSSLRSEDTAVYYCARSRGYYGSFYFDIWGQGTLVTVSS
VL: not shown
notes: human IgG1 Fab
In the case of B5, the Kd worked out at 330 nM in assay [1], 171 nM in assay [2], 28.9 nM in assay [3] and 130 nM in assay [4].

B6: anti-CD38-B6-MP02-C1 FAB (Fab, V domains shown)
VH: QVQLVQSGAEVKKPGSSVKVSCKASGGHQLGKIINWVRQAPGQGLEWMGRVIPVIDDAYYAQKFQGRVTITADESTSTAYMELSSLRSEDTAVYYCARSRGYYGSFYFDIWGQGTLVTVSS
VL: not shown
notes: human IgG1 Fab
Consider B6, for which the Kd in assay [1] amounted to 333 nM; in assay [2], 97.7 nM; in assay [3], 12 nM; in assay [4], 67.2 nM.

B7: anti-CD38-B6-MP02-B10 FAB (Fab, V domains shown)
VH: QVQLVQSGAEVKKPGSSVKVSCKASGGHNLGKIINWVRQPPGQGLEWMGRVIPVIDDAYYAQKFQGRVTITADESTSTAYMELSSLRSEDTAVYYCARSRGYYGSFYFDIWGQGTLVTVSS
VL: not shown
notes: human IgG1 Fab
With B7, the Kd in assay [1] was 528 nM; in assay [2], 108 nM; in assay [3] it was 20.1 nM; in assay [4] it was 81.2 nM.

B8: anti-CD38-B6-MP01-B4 FAB (Fab, V domains shown)
VH: QVQLVQSGAEVKKPGSSVKVSCKASGYEFNTYIINWVRQAPGQGLEWMGRVIPVIDDAYYAQKFQGRVTITADESTSTAYMELSSLRSEDTAVYYCARSRGYYGSFYFDIWGQGTLVTVSS
VL: not shown
notes: human IgG1 Fab
Consider B8, for which the Kd in assay [1] was 167 nM; in assay [2], 51.6 nM; in assay [3], 11.9 nM; in assay [4] it was 45.4 nM.

B9: anti-CD38-B6-MP01-H3a FAB (Fab, V domains shown)
VH: QVQLVQSGAEVKKPGSSVKVSCKASGGPFNANIVNWIRQAPGQGLEWMGRVIPVIDDAYYAQKFQGRVTITADESTSTAYMELSSLRSEDTAVYYCARSRGYYGSFYFDIWGQGTLVTVSS
VL: not shown
notes: human IgG1 Fab
On to B9, for which the Kd in assay [1] turned out to be 389 nM; in assay [2], 89.4 nM; in assay [3], 28.3 nM; in assay [4], 120 nM.

B10: anti-CD47-UCP01-G2 FAB (Fab, V domains shown)
VH: EVQLVESGGGLIQPGGSLRLSCAASGFTVSNSYMTWVRQAPGKGLEWVSVIYKYGKTSYADSVKGRFTISRDNSKNTLYLQMNSLRAEDTAVYYCARGLTVSPYWGGAFDYWGQGTLVTVSS
VL: not shown
notes: human IgG1 Fab
Regarding B10, the results for the Kd in assay [5] and in assay [6] were 190 nM and 183 nM, respectively.

B11: anti-CD38-420-E2-RecB FAB (Fab, V domains shown)
VH: QVQLVQSGAEVKKPGSSVKVSCKASGLPDATYAIGWVRQAPGQGLEWMGRIIPALAATHYAQKFQGRVTITADESTSTAYMELSSLRSEDTAVYYCARGLGYYLYSSYYFDIWGQGTLVTVSS
VL: not shown
notes: human IgG1 Fab
For the molecule B11, the results for the Kd in assay [1] and in assay [2] were 4.4 nM and 1.6 nM, respectively.

B12: anti-CD38-E2-UCP02-F3 FAB (Fab, V domains shown)
VH: QVQLVQSGAEVKKPGSSVKVSCKASGGSFSNYAIGWVRQAPGQGLEWMGRIIPVLDAAHYAQKFQGRVTITADESTSTAYMELSSLRSEDTAVYYCARGLGYYLYSSYYFDIWGQGTLVTVSS
VL: not shown
notes: human IgG1 Fab; also called anti-CD38-E2-F3
For B12, the equilibrium dissociation constant (Kd) in assay [2] was found to be 6.13 nM; in assay [3], 3.5 nM; in assay [4] it was 2.4 nM.

B13: anti-CD38-E2-UCP02-G8 FAB (Fab, V domains shown)
VH: QVQLVQSGAEVKKPGSSVKVSCKASGGSFSNYAIGWVRQAPGQGLEWMGRIIPALGGVHYAQKFQGRVTITADESTSTAYMELSSLRSEDTAVYYCARGLGYYLYSSYYFDIWGQGTLVTVSS
VL: not shown
notes: human IgG1 Fab
As to B13, the values for the Kd in assay [2], in assay [3] and in assay [4] were 7.7 nM, 5.2 nM and 4.2 nM, respectively.

B14: anti-CD38-E2-UCP02-F8 FAB (Fab, V domains shown)
VH: QVQLVQSGAEVKKPGSSVKVSCKASGGSFSNYAIGWVRQAPGQGLEWMGRIIPSLDAGHYAQKFQGRVTITADESTSTAYMELSSLRSEDTAVYYCARGLGYYLYSSYYFDIWGQGTLVTVSS
VL: not shown
notes: human IgG1 Fab; also called anti-CD38-E2-F8
With B14, the figures for the Kd in assay [2], in assay [3] and in assay [4] were 16.2 nM, 17.6 nM and 24.5 nM, respectively.

B15: anti-CD38-E2-UCP02-E7 FAB (Fab, V domains shown)
VH: QVQLVQSGAEVKKPGSSVKVSCKASGGSFSNYAIGWVRQAPGQGLEWMGRIIPALAATHYAQKFQGRVTITADESTSTAYMELSSLRSEDTAVYYCARGLGYYLYSSYYFDIWGQGTLVTVSS
VL: not shown
notes: human IgG1 Fab
Regarding B15, the Kd in assay [2] was 4.66 nM; in assay [3], 2.2 nM; in assay [4], 1.8 nM.

B16: anti-CD38-420-E2-RecA FAB (Fab, V domains shown)
VH: QVQLVQSGAEVKKPGSSVKVSCKASGLPDATYAIGWVRQAPGQGLEWMGRIIPRLDAEHYAQKFQGRVTITADESTSTAYMELSSLRSEDTAVYYCARGLGYYLYSSYYFDIWGQGTLVTVSS
VL: not shown
notes: human IgG1 Fab; also called anti-CD38-E2-RecA
Turning to B16, the Kd in assay [1] was determined as 3.7 nM; in assay [2] it was 0.9 nM.

B17: anti-CD38-E2-UCP02-D6 FAB (Fab, V domains shown)
VH: QVQLVQSGAEVKKPGSSVKVSCKASGGSFSNYAIGWVRQAPGQGLEWMGRIIPRLDAEHYAQKFQGRVTITADESTSTAYMELSSLRSEDTAVYYCARGLGYYLYSSYYFDIWGQGTLVTVSS
VL: not shown
notes: human IgG1 Fab
For the molecule B17, the values for the Kd in assay [2], in assay [3] and in assay [4] were 5.35 nM, 4.9 nM and 1.1 nM, respectively.

B18: anti-CD38-E2-UCP02-A5 FAB (Fab, V domains shown)
VH: QVQLVQSGAEVKKPGSSVKVSCKASGGSFSNYAIGWVRQAPGQGLEWMGRIIPDLGAAHYAQKFQGRVTITADESTSTAYMELSSLRSEDTAVYYCARGLGYYLYSSYYFDIWGQGTLVTVSS
VL: not shown
notes: human IgG1 Fab
B18: the Kd in assay [2] was found to be 35 nM; in assay [3], 23.6 nM; in assay [4] it was 4.4 nM.

B19: anti-CD38-420-E2-RecC FAB (Fab, V domains shown)
VH: QVQLVQSGAEVKKPGSSVKVSCKASGLPDATYAIGWVRQAPGQGLEWMGRIIPVLDAAHYAQKFQGRVTITADESTSTAYMELSSLRSEDTAVYYCARGLGYYLYSSYYFDIWGQGTLVTVSS
VL: not shown
notes: human IgG1 Fab
Take B19: the Kd in assay [1] came out at 3.9 nM; in assay [2], 1.3 nM.

B20: anti-CD38-E2-UCP01-A10 FAB (Fab, V domains shown)
VH: QVQLVQSGAEVKKPGSSVKVSCKASGLPDATYAIGWVRQAPGQGLEWMGRIIPVFGSAHYAQKFQGRVTITADESTSTAYMELSSLRSEDTAVYYCARGLGYYLYSSYYFDIWGQGTLVTVSS
VL: not shown
notes: human IgG1 Fab
Regarding B20, the Kd in assay [2] was found to be 16.9 nM; in assay [3] it was 9.4 nM; in assay [4] it was 8.6 nM.

B21: anti-CD38-420-E2-RecD FAB (Fab, V domains shown)
VH: QVQLVQSGAEVKKPGSSVKVSCKASGLPDATYAIGWVRQAPGQGLEWMGRIIPALGGVHYAQKFQGRVTITADESTSTAYMELSSLRSEDTAVYYCARGLGYYLYSSYYFDIWGQGTLVTVSS
VL: not shown
notes: human IgG1 Fab
Take B21: the Kd in assay [1] was 22.1 nM; in assay [2], 6.7 nM.

B22: anti-CD47-UCP01-A3 FAB (Fab, V domains shown)
VH: EVQLVESGGGLIQPGGSLRLSCAASGFTFTNSWMSWVRQAPGKGLEWVSVIYKYGFTEYADSVKGRFTISRDNSKNTLYLQMNSLRAEDTAVYYCARGSSIAAYAYAAPYRGGWMDVWGQGTLVTVSS
VL: not shown
notes: human IgG1 Fab
In the case of B22, the Kd in assay [5] is 1260 nM; in assay [6], 1170 nM.

B23: anti-CD47-UCP01-A1 FAB (Fab, V domains shown)
VH: QVQLVQSGAEVKKPGSSVKVSCKASGGFFRLYAFSWVRQAPGQGLEWMGGIIPTDGFVGYAQKFQGRVTITADESTSTAYMELSSLRSEDTAVYYCARSRYYRPYGEYYVVGYGFAYWGQGTLVTVSS
VL: not shown
notes: human IgG1 Fab
For B23, the results for the Kd in assay [5] and in assay [6] were 15.9 nM and 292 nM, respectively.
